Laboratory results published in patent US20220119518A1 (KUMHO HT, published 2022).
Numbering of substitutions follows the chain as printed. Each block holds one binder with its values, some of them ahead of it.

How the values were obtained:
[1] = molecular target: T1, CEACAM1 antigen (Sino Biological, Inc.) (UniProt P13688 35-428); test: ELISA, CEACAM1 coated 100 ng/well, antibody at 1.52 ng/ml
T1 construct: Bought antigen, coated on the ELISA plate; construct not described; also called CEACAM1 (CD66a) antigen; CD66a
T1 sequence (looked up): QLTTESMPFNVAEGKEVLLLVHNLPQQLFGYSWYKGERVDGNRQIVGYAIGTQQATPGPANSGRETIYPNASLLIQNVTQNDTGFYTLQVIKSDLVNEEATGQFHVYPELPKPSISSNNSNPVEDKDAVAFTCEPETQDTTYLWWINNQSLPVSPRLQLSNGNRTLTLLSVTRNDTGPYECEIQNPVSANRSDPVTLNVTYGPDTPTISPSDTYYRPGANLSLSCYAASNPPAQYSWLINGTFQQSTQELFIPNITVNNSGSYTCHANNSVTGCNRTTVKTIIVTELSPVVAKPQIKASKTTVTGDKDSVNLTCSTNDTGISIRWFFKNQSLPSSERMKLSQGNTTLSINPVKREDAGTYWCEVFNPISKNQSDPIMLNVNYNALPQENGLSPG
Protocol: (§1) Antigen CD66c (CEACAM6; Sino Biological, Inc.) and CEACAM1 antigen (Sino Biological, Inc.) were coated on a 96-well plate at a rate of 100 ng per well and then blocked. The primary antibody was diluted 3-fold from 10 ug/ml and bound at 37° C. for 1 hour. […] goat anti-Human Ig-HRP conjugate (Jackson ImmunoResearch) as a secondary antibody was diluted 1:10,000 and incubated at 37° C. for 30 minutes. The washing was carried out at three times between each step, and the TMB reaction was performed, stopped with 1N H₂SO₄ solution at the same amount of TMB solution (100 ul) and then OD value was measured at 450 nm.

[2] = molecular target: T2, Antigen CD66c (CEACAM6; Sino Biological, Inc.) (UniProt P40199 35-320); test: ELISA, CEACAM6 coated 100 ng/well, antibody at 41.15 ng/ml
T2 construct: Bought antigen, coated on the ELISA plate; construct not described; also called CECACAM6 (CD66c) antigen; CD66c antigen
T2 sequence (looked up): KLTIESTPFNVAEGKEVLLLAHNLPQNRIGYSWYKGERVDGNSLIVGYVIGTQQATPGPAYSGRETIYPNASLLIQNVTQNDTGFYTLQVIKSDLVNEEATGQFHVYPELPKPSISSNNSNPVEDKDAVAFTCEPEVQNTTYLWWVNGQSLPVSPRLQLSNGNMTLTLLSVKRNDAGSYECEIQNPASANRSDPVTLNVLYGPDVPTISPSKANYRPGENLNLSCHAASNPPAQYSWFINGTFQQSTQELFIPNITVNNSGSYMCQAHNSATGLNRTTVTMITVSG
Protocol: as §1

[3] = molecular target: T2, Antigen CD66c (CEACAM6; Sino …); test: ELISA, CEACAM6 coated 100 ng/well, antibody at 10000.00 ng/ml
Protocol: as §1
(§2) As a result of the experiment, the binding affinities to CD66c antigen of the five kinds of recombinant humanized antibodies selected from among 96 kinds of recombinant humanized antibodies are shown in FIG. 4a, Table 12, FIG. 4b and Table 13. FIG. 4a and Table 12 show the binding capacity of the antibodies to CECACAM6 CD66c) antigen, and FIG. 4b and Table 13 are the results for the CEACAM1 (CD66a) antigen.

[4] = molecular target: T1, CEACAM1 antigen (Sino Biological, Inc.); test: ELISA, CEACAM1 coated 100 ng/well, antibody at 3333.33 ng/ml
Protocol: as §1

[5] = molecular target: T3, CD66c (Cluster of Differentiation 66c) on cells (UniProt P40199 35-320, limits assumed); test: flow cytometry on CD66c-positive A549 cells, FITC anti-human IgG
T3 construct: whole, on cells; also called CEACAM6; CEACAM 6
T3 sequence (looked up): T2 sequence (looked up)
Protocol: Each expressed 96 recombinant humanized antibody was poured and reacted in a test tube containing the same amount […] of CD66c-positive A549 non-small-cell lung cancer cell line at 4° C. for 30 minutes, washed with PBS, and treated with FITC-conjugated goat anti-Huma IgG (DiNona Inc, Korea) was added and incubated at 4° C. for 15 minutes. After washing with PBS, the cells were analyzed with a flow cytometer (Stratedigm, S1000EXi) and the results are shown below.
Among the 96 recombinant humanized antibody candidates, eight were firstly selected based on the degree of expression, the presence of aggregation, and the degree of cell binding (Table 9 and Table 10, FIGS. 3A to 3E).

[6] = molecular target: T1, CEACAM1 antigen (Sino Biological, Inc.); test: ELISA, CEACAM1 coated 100 ng/well, antibody at 10000.00 ng/ml
Protocol: as §1

[7] = molecular target: T2, Antigen CD66c (CEACAM6; Sino …); test: ELISA, CEACAM6 coated 100 ng/well, antibody at 123.46 ng/ml
Protocol: as §1, §2

[8] = molecular target: T2, Antigen CD66c (CEACAM6; Sino …); test: ELISA, CEACAM6 coated 100 ng/well, antibody at 1.52 ng/ml
Protocol: as §1, §2

[9] = molecular target: T2, Antigen CD66c (CEACAM6; Sino …); test: ELISA, CEACAM6 coated 100 ng/well, antibody at 1111.11 ng/ml
Protocol: as §1, §2

[10] = molecular target: T1, CEACAM1 antigen (Sino Biological, Inc.); test: ELISA, CEACAM1 coated 100 ng/well, antibody at 0.17 ng/ml
Protocol: as §1, §2

[11] = molecular target: T1, CEACAM1 antigen (Sino Biological, Inc.); test: ELISA, CEACAM1 coated 100 ng/well, antibody at 123.46 ng/ml
Protocol: as §1

[12] = molecular target: T2, Antigen CD66c (CEACAM6; Sino …); test: ELISA, CEACAM6 coated 100 ng/well, antibody at 370.37 ng/ml
Protocol: as §1, §2

[13] = molecular target: T2, Antigen CD66c (CEACAM6; Sino …); test: ELISA, CEACAM6 coated 100 ng/well, antibody at 0.51 ng/ml
Protocol: as §1, §2

B2: recombinant humanized anti-CD66c antibody Protein ID 3007 (Vk7 + VH6) (antibody, human IgG1, V domains shown)
VH: QVQLVQSGAEVKKPGASMKISCKASGYSFTDYTMNWVKQAPGQNLEWIGLINPFHGGTVSNQRFKVKATLTVDVSTNTAYMELSRLRSDDTAVYYCVRGDPVRHYYALAYWGQGTLVTVSS
VL: DIQMTQSPSTLSASVGDRVTITCGASENVYGTLNWYQRKPGKAPKLLIYGATNLADGVPSRFSGSGSGTEYTLTISSLQPDDFATYYCQNVLSAPYTFGGGTKLEIK
notes: also called hu 3007; #43
OD 450 nm [1]: 0.18 OD 450 nm | OD 450 nm [2]: 2.17 OD 450 nm | OD 450 nm [3]: 3.37 OD 450 nm | OD 450 nm [4]: 1.15 OD 450 nm | % (% gated × mean), against the chimeric antibody [5]: 88.8% | % gated [5]: 71% | Mean (fluorescence) [5]: 565 | OD 450 nm [6]: 1.01 OD 450 nm | OD 450 nm [7]: 2.9 OD 450 nm | OD 450 nm [8]: 0.79 OD 450 nm | OD 450 nm [9]: 3.23 OD 450 nm | OD 450 nm [10]: 0.09 OD 450 nm | OD 450 nm [11]: 0.82 OD 450 nm | OD 450 nm [12]: 3.16 OD 450 nm | OD 450 nm [13]: 0.64 OD 450 nm

B4: recombinant humanized anti-CD66c antibody Protein ID 2938 (Vk5 + VH7) (antibody, human IgG1, V domains shown)
VH: B2 VH with K38R, N44G
VL: B2 VL with N34A, T69R
notes: also called hu 2938
OD 450 nm [1]: 0.05 OD 450 nm | OD 450 nm [2]: 1.72 OD 450 nm | OD 450 nm [3]: 3.43 OD 450 nm | OD 450 nm [4]: 0.27 OD 450 nm | % (% gated × mean), against the chimeric antibody [5]: 96% | % gated [5]: 71% | Mean (fluorescence) [5]: 611 | OD 450 nm [6]: 0.32 OD 450 nm | OD 450 nm [7]: 2.56 OD 450 nm | OD 450 nm [8]: 0.48 OD 450 nm | OD 450 nm [9]: 3.16 OD 450 nm | OD 450 nm [10]: 0.04 OD 450 nm | OD 450 nm [11]: 0.1 OD 450 nm | OD 450 nm [12]: 3.08 OD 450 nm | OD 450 nm [13]: 0.36 OD 450 nm

B5: anti-CD66c chimeric antibody 8F5 (antibody, human IgG1, V domains shown)
VH: EVQLQQSGPELVKPGASMKISCKASGYSFTDYTMNWVKQSHGKNLEWIGLINPFHGGTVSNQRFKVKATLTVDVSSNTAYMELLSLTSDDSAVYYCVRGDPVRHYYALAYWGQGTSVTVSS
VL: DIQMTQSPASLSASVGETVTITCGASENVYGTLNWYQRKQGKSPQLLIYGATNLADGMSSRFSGSGSGRQYSLKISSLHPDDVATYYCQNVLSAPYTFGGGTKLEII
notes: also called chimeric 8F5; chi 8F5
OD 450 nm [1]: 0.16 OD 450 nm | OD 450 nm [2]: 2.02 OD 450 nm | OD 450 nm [3]: 3.17 OD 450 nm | OD 450 nm [4]: 1.24 OD 450 nm | % (% gated × mean), against the chimeric antibody [5]: 100% | % gated [5]: 73% | Mean (fluorescence) [5]: 619 | OD 450 nm [6]: 1.21 OD 450 nm | OD 450 nm [7]: 2.83 OD 450 nm | OD 450 nm [8]: 0.53 OD 450 nm | OD 450 nm [9]: 3.3 OD 450 nm | OD 450 nm [10]: 0.08 OD 450 nm | OD 450 nm [11]: 0.95 OD 450 nm | OD 450 nm [12]: 3.3 OD 450 nm | OD 450 nm [13]: 0.41 OD 450 nm

More lines, now with the values ahead:

OD 450 nm [1]: 0.05 OD 450 nm | OD 450 nm [2]: 1.38 OD 450 nm | OD 450 nm [3]: 2.87 OD 450 nm | OD 450 nm [4]: 0.31 OD 450 nm | % (% gated × mean), against the chimeric antibody [5]: 103% | % gated [5]: 72% | Mean (fluorescence) [5]: 645 | OD 450 nm [6]: 0.42 OD 450 nm | OD 450 nm [7]: 2.22 OD 450 nm | OD 450 nm [8]: 0.53 OD 450 nm | OD 450 nm [9]: 3.19 OD 450 nm | OD 450 nm [10]: 0.04 OD 450 nm | OD 450 nm [11]: 0.07 OD 450 nm | OD 450 nm [12]: 2.8 OD 450 nm | OD 450 nm [13]: 0.38 OD 450 nm
B1: recombinant humanized anti-CD66c antibody Protein ID 3058 (Vk8 + VH11) (antibody, human IgG1, V domains shown)
VH: QVQLVQSGAEVKKPGASVKISCKASGYSFTDYTMHWVKQAPGQNLEWIGLINPFGGSTSYAQKFKGRVTMTRDTSTNTAYMELSRLRSDDTAVYYCVRGDPVRHYYALAYWGQGTLVTVSS
VL: B2 VL with G24R, V58M
notes: also called hu 3058; #86

OD 450 nm [1]: 0.16 OD 450 nm | OD 450 nm [2]: 1.73 OD 450 nm | OD 450 nm [3]: 2.73 OD 450 nm | OD 450 nm [4]: 1.22 OD 450 nm | % (% gated × mean), against the chimeric antibody [5]: 105% | % gated [5]: 69% | Mean (fluorescence) [5]: 686 | OD 450 nm [6]: 0.91 OD 450 nm | OD 450 nm [7]: 2.29 OD 450 nm | OD 450 nm [8]: 0.7 OD 450 nm | OD 450 nm [9]: 2.74 OD 450 nm | OD 450 nm [10]: 0.08 OD 450 nm | OD 450 nm [11]: 0.7 OD 450 nm | OD 450 nm [12]: 2.92 OD 450 nm | OD 450 nm [13]: 0.49 OD 450 nm
B3: recombinant humanized anti-CD66c antibody Protein ID 3043 (Vk8 + VH6) (antibody, V domains shown)
VH: B2 VH
VL: B2 VL with G24R, V58M
notes: also called hu 3043; #71
